Key:
GST-DnaA = biological target: T1, GST-DnaA (Borrelia burgdorferi, UniProt P33768 1-486); test: competition; ATP, Mg2+; 10x excess vs N1; 50 mM Tris-HCl (pH not stated), 50 mM KCl, 1 mM EDTA, 1 mM PMSF, 1 mM DTT, 0.01% Tween 20, 10% glycerol; room temperature 15 min; GST-DnaA reactions with 1 mM MgCl2 and 1 mM ATP or ADP; 100 nM DNA or 20 nM RNA probe; details: protein: recombinant; tags: N-terminal GST; blunt
T1 sequence: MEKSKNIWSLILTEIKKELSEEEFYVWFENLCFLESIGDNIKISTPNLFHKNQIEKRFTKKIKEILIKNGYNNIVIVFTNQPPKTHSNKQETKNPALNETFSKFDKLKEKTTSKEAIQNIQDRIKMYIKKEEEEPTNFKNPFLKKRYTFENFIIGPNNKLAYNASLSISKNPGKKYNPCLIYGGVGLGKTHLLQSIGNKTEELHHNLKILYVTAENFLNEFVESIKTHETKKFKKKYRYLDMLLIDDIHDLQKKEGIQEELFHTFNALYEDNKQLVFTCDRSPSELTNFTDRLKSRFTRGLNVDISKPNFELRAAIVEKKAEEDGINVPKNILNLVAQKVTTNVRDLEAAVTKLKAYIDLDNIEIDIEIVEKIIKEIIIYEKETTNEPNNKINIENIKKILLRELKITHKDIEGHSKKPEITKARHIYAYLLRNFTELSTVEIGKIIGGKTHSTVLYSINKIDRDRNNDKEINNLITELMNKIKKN

EbfC [1] = biological target: T2, EbfC (Borrelia burgdorferi, UniProt O51418 1-99); test: competition; 50x excess vs N13; 50 mM Tris-HCl (pH not stated), 50 mM KCl, 1 mM EDTA, 1 mM PMSF, 1 mM DTT, 0.01% Tween 20, 10% glycerol; room temperature 15 min; GST-DnaA reactions with 1 mM MgCl2 and 1 mM ATP or ADP; 100 nM DNA or 20 nM RNA probe; details: protein: recombinant; tags: N-terminal 6xHis (pET200); chain copies: 2
T2 sequence: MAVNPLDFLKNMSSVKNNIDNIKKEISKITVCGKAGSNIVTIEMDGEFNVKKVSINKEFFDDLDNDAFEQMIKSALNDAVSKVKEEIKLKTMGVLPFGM

EbfC [2] = biological target: T2, EbfC; test: competition; 50x excess vs N13; only smaller complex eliminated; 50 mM Tris-HCl (pH not stated), 50 mM KCl, 1 mM EDTA, 1 mM PMSF, 1 mM DTT, 0.01% Tween 20, 10% glycerol; room temperature 15 min; GST-DnaA reactions with 1 mM MgCl2 and 1 mM ATP or ADP; 100 nM DNA or 20 nM RNA probe; details: protein: recombinant; tags: N-terminal 6xHis (pET200); chain copies: 2
EbfC [3] = biological target: T2, EbfC; test: EMSA; 5-15 uM EbfC; two complexes; 50 mM Tris-HCl (pH not stated), 50 mM KCl, 1 mM EDTA, 1 mM PMSF, 1 mM DTT, 0.01% Tween 20, 10% glycerol; room temperature 15 min; GST-DnaA reactions with 1 mM MgCl2 and 1 mM ATP or ADP; 100 nM DNA or 20 nM RNA probe; details: protein: recombinant; tags: N-terminal 6xHis (pET200); chain copies: 2; label: 5' Alexa Fluor 647 (probe)
EbfC [4] = biological target: T2, EbfC; test: EMSA; poly(dI-dC) 2.5 ng/uL; 3.75-30 uM EbfC; 50 mM Tris-HCl (pH not stated), 50 mM KCl, 1 mM EDTA, 1 mM PMSF, 1 mM DTT, 0.01% Tween 20, 10% glycerol; room temperature 15 min; GST-DnaA reactions with 1 mM MgCl2 and 1 mM ATP or ADP; 100 nM DNA or 20 nM RNA probe; details: protein: recombinant; tags: N-terminal 6xHis (pET200); chain copies: 2; label: 5' IRDye800 on strand 1; blunt

| Binder | binding result (GST-DnaA) | other results |
| --- | --- | --- |
| Competitor 6 (C6) (dsDNA) DNA 1: TTTCAATTTTATTATATTTTTTATGTTTCATAAAATTCTTTTAAA DNA 2: TTTAAAAGAATTTTATGAAACATAAAAAATATAATAAAATTGAAA | no binding |  |
| AGGCAAAAGGAUUUGCCAAAGUCAGAAAUU (ssRNA) [flaB RNA competitor] |  | binding result (EbfC [1]): no binding |
| GGAUUUGUCUUUUUGUAACUUUCAAUUUUA (ssRNA) [unlabeled dnaX-ebfC RNA competitor] |  | binding result (EbfC [2]): binds |
| GGAUUUGUCUUUUUGUAACUUUCAAUUUUA (ssRNA) [EbfC RNA, dnaX-ebfC 5' UTR 30-mer] |  | binding result (EbfC [3]): binds |
| Competitor 2 (C2) (dsDNA) DNA 1: GGATTTGTCTTTTTGTAACTTTCAATTTTATTATATTTTTTATGT DNA 2: ACATAAAAAATATAATAAAATTGAAAGTTACAAAAAGACAAATCC | binds |  |
| Competitor 5 (C5) (dsDNA) DNA 1: AAATGCAATGTTTTGCTTTATGTTAAGATATGGATTTGTCTTTTT DNA 2: AAAAAGACAAATCCATATCTTAACATAAAGCAAAACATTGCATTT | no binding |  |
| Competitor 3 (C3) (dsDNA) DNA 1: TTCATAAAATTCTTTTAAAGTAATAGCTCTGAGATATAAATATGT DNA 2: ACATATTTATATCTCAGAGCTATTACTTTAAAAGAATTTTATGAA | binds |  |
| probe 2, consensus EbfC motif (dsDNA) DNA 1: GGATTTGTCTTTTTGTAACTTTCAATTTTA DNA 2: TAAAATTGAAAGTTACAAAAAGACAAATCC |  | binding result (EbfC [4]): binds |
